Assay results published in the supplement of paper PMC10567573.

B1: KRT33B (parent)
chain: PAVDLNQVLNETRNQYEALVETNR

Variants of: B1
Experiment: protein stability index of a GFP-peptide fusion (GPS, HEK-293T) (PSI 1-6); higher = more stable
Details: c terminus: a fixed tail appended
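Note: lentivirally expressed fusions sorted by FACS into six bins by GFP to DsRed ratio, PSI derived from sequencing read proportions per bin multiplied by bin number.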

Variant	protein stability index
PAVYLNQVLNETRNQYEALVETNR [D4Y]	3.44
PAVPLNQVLNETRNQYEALVETNR [D4P]	3.74
PAVQLNQVLNETRNQYEALVETNR [D4Q]	4.31
PAVRLNQVLNETRNQYEALVETNR [D4R]	3.76
PAVDLNQVLNETRNQYMALVETNR [E17M]	3.55
PAVDLNQVLNETRNQYSALVETNR [E17S]	4.24
PAVDLNQVLNETRNQYQALVETNR [E17Q]	4.4
PAVDLNQVLNETRNQYYALVETNR [E17Y]	3.09
PAVDLNQVLNETRNQYVALVETNR [E17V]	3.71
PAVDLNQVLNETRNQYLALVETNR [E17L]	3.73
PAVDLNQVLNETRNQYDALVETNR [E17D]	4.23
PAVDLNQVLNETRNQYFALVETNR [E17F]	2.9
YAVDLNQVLNETRNQYEALVETNR [P1Y]	3.33
MAVDLNQVLNETRNQYEALVETNR [P1M]	3.71
GAVDLNQVLNETRNQYEALVETNR [P1G]	4.39
CAVDLNQVLNETRNQYEALVETNR [P1C]	2.89
KAVDLNQVLNETRNQYEALVETNR [P1K]	3.66
QAVDLNQVLNETRNQYEALVETNR [P1Q]	3.26
PAVDLNQVLNETRNQYEALVRTNR [E21R]	4.04
PAVDLNQVLNETRNQYEALVCTNR [E21C]	3.58
PAVDLNQVLNETRNQYEALVWTNR [E21W]	2.89
PAVDLNQVLNETRNQYEALVLTNR [E21L]	3.37
PAVDLNQVLNETRNQYEALVPTNR [E21P]	4.18
PAVDLNQVLNETRNQYEALVDTNR [E21D]	3.69

Variant	protein stability index
PAVDLNQVLNETRNQYEALVNTNR [E21N]	4.14
PAVDLNQVLNETRNQYEALVATNR [E21A]	3.85
PAVDLNQVLNETRNQYEALVGTNR [E21G]	4.22
PAVDLNQVLNETRNQYEALVHTNR [E21H]	4.19
PAVDLNQVLNETRNQYEALVKTNR [E21K]	4.2
PAVDLEQVLNETRNQYEALVETNR [N6E]	1.97
PAVDLRQVLNETRNQYEALVETNR [N6R]	3.13
PAVDLDQVLNETRNQYEALVETNR [N6D]	2.8
PAVDLKQVLNETRNQYEALVETNR [N6K]	3.27
PAVDLSQVLNETRNQYEALVETNR [N6S]	3.54
PAVDLTQVLNETRNQYEALVETNR [N6T]	3.43
PAVDLVQVLNETRNQYEALVETNR [N6V]	2.43
PAVDLYQVLNETRNQYEALVETNR [N6Y]	2.64
PAVDLNQVLNETRNQHEALVETNR [Y16H]	5.02
PAVDLNQVLNETRNQWEALVETNR [Y16W]	3.89
PAVDLNQVLNETRNQGEALVETNR [Y16G]	5.21
PAVDLNQVLNETRNQEEALVETNR [Y16E]	4.85
PAVDLNQVLNETRNQNEALVETNR [Y16N]	5.25
PAVDLNQVLNETRNQDEALVETNR [Y16D]	4.98
PAVDLNQVLNETRNQCEALVETNR [Y16C]	4.57
PAEDLNQVLNETRNQYEALVETNR [V3E]	4.05
PAADLNQVLNETRNQYEALVETNR [V3A]	3.85
PADDLNQVLNETRNQYEALVETNR [V3D]	4.77
PAYDLNQVLNETRNQYEALVETNR [V3Y]	3.56

Variant	protein stability index
PAPDLNQVLNETRNQYEALVETNR [V3P]	4.99
PAFDLNQVLNETRNQYEALVETNR [V3F]	4.36
PAIDLNQVLNETRNQYEALVETNR [V3I]	3.77
PAVDLNQVLNETRNQYEQLVETNR [A18Q]	2.96
PAVDLNQVLNETRNQYESLVETNR [A18S]	3.71
PAVDLNQVLNETRNQYENLVETNR [A18N]	3.89
PAVDLNQVLNETRNQYEKLVETNR [A18K]	2.69
PAVDLNQVLNETRNQYEWLVETNR [A18W]	3.72
PAVDLNQVLNETRNQYEFLVETNR [A18F]	3.48
PAVDLNQVLNETRNQYETLVETNR [A18T]	3.67
PAVDLNQVLNETRNQYEMLVETNR [A18M]	3.55
PAVDLNSVLNETRNQYEALVETNR [Q7S]	4.01
PAVDLNAVLNETRNQYEALVETNR [Q7A]	3.27
PAVDLNTVLNETRNQYEALVETNR [Q7T]	2.97
PAVDLNGVLNETRNQYEALVETNR [Q7G]	4.59
PAVDLNRVLNETRNQYEALVETNR [Q7R]	3.95
PAVDLNDVLNETRNQYEALVETNR [Q7D]	3.73
PAVDLNWVLNETRNQYEALVETNR [Q7W]	4.22
PAVDLNQVLNETRNQYEAAVETNR [L19A]	5.03
PAVDLNQVLNETRNQYEAKVETNR [L19K]	4.95
PAVDLNQVLNETRNQYEAMVETNR [L19M]	3.89
PAVDLNQVLNETRNQYEADVETNR [L19D]	5.42
PAVDLNQVLNETRNQYEARVETNR [L19R]	4.29
PAVDLNQVLNETRNQYEAQVETNR [L19Q]	5.1

Variant	protein stability index
PAVDLNQVLNETRNQYEAPVETNR [L19P]	4.97
PAVDLNQVLNETRNQYEACVETNR [L19C]	4.53
PAVDLNQVLNETRNAYEALVETNR [Q15A]	3.84
PAVDLNQVLNETRNNYEALVETNR [Q15N]	4.38
PAVDLNQVLNETRNEYEALVETNR [Q15E]	4.61
PAVDLNQVLNETRNPYEALVETNR [Q15P]	4.39
PAVDLNQVLNETRNTYEALVETNR [Q15T]	4.22
PAVDLNQVLNETRNWYEALVETNR [Q15W]	2.86
PAVDLNQVLNETRNHYEALVETNR [Q15H]	3.95
PAVDLNQVLNETRNVYEALVETNR [Q15V]	3.82
PAVDLNQVLNETRNMYEALVETNR [Q15M]	1.6
PAVDLNQVLNETRNGYEALVETNR [Q15G]	4.45
PAVDLNQVLNETRRQYEALVETNR [N14R]	2.81
PAVDLNQVLNETRGQYEALVETNR [N14G]	3.32
PAVDLNQVLNETRHQYEALVETNR [N14H]	3.53
PAVDLNQVLNETRKQYEALVETNR [N14K]	2.63
PAVDLNQVLNETRSQYEALVETNR [N14S]	3.04
PAVDLNQVLNETRYQYEALVETNR [N14Y]	3.42
PAVDLNQVLNETRLQYEALVETNR [N14L]	2.07
PAVDLNQVLNETRCQYEALVETNR [N14C]	2.82
PAVDLNQVLNETREQYEALVETNR [N14E]	2.68
PAVDLNQVLNENRNQYEALVETNR [T12N]	4.11
